Measurements as given in patent US9981059B2, “Sugar chain-polypeptide complex” (Glytech, Inc., priority 2013, dated 2018).

What was measured:
[1] = Steel ball loading test of hydrogel property; format: physicochemical; parameters: key to position of the steel ball / hydrogel state: The state of the steel ball staying near the hydrogel surface was set as ◯; sinking after loading and staying internally was set as Δ; sinking to the bottom of the Durham's tube was set as X; * was added to those where the hydrogel was not uniform and clouding or insoluble matter (precipitate) was observed
Procedure: Ten mg of the sugar chain-polypeptide complex or 10 mg of the control polypeptide were dissolved in 500 μL of ultrapure water to prepare 2 wt. % polypeptide solutions. […] In doing so, citrate-phosphate buffer (pH 2.0 and 3.5), phosphate buffer (pH 7.4), and phosphate-sodium hydroxide buffer (pH 11.5) were employed as the buffer. The surface of the hydrogel inside the Durham's tube was horizontally placed, left still for 20 minutes under room temperature conditions, and a steel ball (diameter 1.56 mm, weight 16 mg, FUNABE SEIKO Co., Ltd.) was loaded on the hydrogel. After 10 minutes, the position of the steel ball was observed by visual confirmation.
The position of the steel ball inside the Durham's tube was evaluated in 3 grades. The state of the steel ball staying near the hydrogel surface was set as ◯, sinking after loading and staying internally was set as Δ, and sinking to the bottom of the Durham's tube was set as X. In addition, * was added to those where the hydrogel was not uniform and clouding or insoluble matter (precipitate) was observed. A hydrogel where the steel ball stays around the surface (◯) and no clouding or insoluble matter is seen (no *) was thought to be a gel that is transparent and uniform.

[2] = Steel ball loading test of hydrogels comprising rat blood plasma (utility as hemostatic matrix); format: physicochemical; settings: polypeptide 0.5 wt. %
Procedure: Aqueous polypeptide solutions were prepared with a method similar to Example 1. Blood was collected from 7 weeks-old Crlj:WI rats with heparin sodium injection (Ajinomoto), and blood plasma was obtained from the supernatant after centrifugation treatment. The aqueous polypeptide solution, blood plasma, and PBS were added to a Durham's tube, and hydrogels was prepared so that the plasma concentration was 5-50% and the polypeptide concentration was 0.5 wt. %. Subsequently, these were left for 20 minutes at room temperature condition, and then steel ball loading tests were carried out with a method similar to Example 1.

[3] = Circular dichroism (CD) measurement of β sheet structure; format: physicochemical
Procedure: In general, the characteristics of the wavelengths observed when a substance has a β sheet structure are a positive absorption at around 197 nm and a negative absorption at around 216 nm. For this reason, focus was placed on the size of these wavelengths in the present invention, and the influence of pH on the β sheet structure was investigated.
One to ten millimolars of aqueous sodium hydroxide solutions were added to each of these aqueous polypeptide solutions to adjust the pH, and 100 mM aqueous polypeptide solutions at having pH 2 or pH 7 were created. These aqueous solutions were transferred to quartz cells having an optical path length of 0.1 cm. The CD spectrum was then measured with a spectrum polarimeter (J-805, Jasco) at wavelengths of 185-260 nm for ellipticity (millidegree). The mean residue ellipticity θ was calculated with the following formula: [θ]=(θobs/10·l·c)/r
wherein θobs represents the ellipticity measured in millidegree, l represents the cell length (cm), c represents the concentration (M), and r represents the number of amino acid residues.

[4] = Kinetic viscosity measurement with rheometer; format: physicochemical; settings: 0.5 wt. % hydrogel, pH 7, 25 degrees
Procedure: A rheometer (MCR302, Anton Paar GmbH) equipped with a stainless steel parallel plate having a diameter of 25 mm with 0.3 mm gap height was employed for kinetic viscosity measurement. […] Five millimolars of aqueous sodium hydroxide solution was added to these aqueous polypeptide solutions in order to adjust the pH to prepare 0.5 wt. % hydrogels at pH 7. Subsequently, these hydrogels were quickly transferred to a rheometer set at 25 degrees, and phase angle (tan δ) was monitored over a time course. (frequency=1 Hz, distortion=10%)

[5] = molecular target: T1, Bovine Serum Albumin (BSA) (Bos taurus, UniProt P02769); assay: Controlled release capability for acidic protein encapsulated in hydrogel
T1 construct: purchased Life Technologies A13100
Procedure: A phosphate buffer (pH 7.4) was employed as the buffer. Moreover, Bovine Serum Albumin (BSA) fluorescently labeled with Alexa Fluor™ 488 (A13100, Life Technologies) was employed as the acidic protein to be encapsulated into the hydrogel.
The components were added to the tube so that the buffer salt concentration is 0.15 M, the BSA concentration is 5 μM, and the polypeptide concentration is 0.25-1 wt. %, and mixed by vortex. The mixture was added to the Multiwell Insert System (351130, BD) at 50 μL each, and left overnight in an incubator at 37 degrees (CO2 incubator for cell culture, MCO-18AIC, SANYO) with shading to prepare BSA-encapsulating hydrogels. In the incubator at 37 degrees, the Insert System was immersed in a 96-well flat bottom plate (353928, BD) with a buffer identical to the hydrogel added at 225 μL each, and the plate was shaken with a plate shaker (MICRO PLATE MIXER NS-P, AS ONE Corporation, rotation speed: ⅕ of scale) to initiate the test (0 hours). Subsequently, the fluorescence amount that leaked out over time on the flat bottom plate side was measured with a fluorescence plate reader (SpectraMax M3, Molecular Devices, LLC.). A standard curve was created with the identical fluorescently-labeled BSA, and the protein concentration was calculated from the amount of fluorescent dye that leaked out. A solution of only BSA added to the buffer (W/O SAP) was employed as the control.

[6] = hydrogel concentration 0.5 wt. %, pH 3.5
[7] = hydrogel concentration 0.5 wt. %, pH 7.4

T1 sequence (P02769 25-607): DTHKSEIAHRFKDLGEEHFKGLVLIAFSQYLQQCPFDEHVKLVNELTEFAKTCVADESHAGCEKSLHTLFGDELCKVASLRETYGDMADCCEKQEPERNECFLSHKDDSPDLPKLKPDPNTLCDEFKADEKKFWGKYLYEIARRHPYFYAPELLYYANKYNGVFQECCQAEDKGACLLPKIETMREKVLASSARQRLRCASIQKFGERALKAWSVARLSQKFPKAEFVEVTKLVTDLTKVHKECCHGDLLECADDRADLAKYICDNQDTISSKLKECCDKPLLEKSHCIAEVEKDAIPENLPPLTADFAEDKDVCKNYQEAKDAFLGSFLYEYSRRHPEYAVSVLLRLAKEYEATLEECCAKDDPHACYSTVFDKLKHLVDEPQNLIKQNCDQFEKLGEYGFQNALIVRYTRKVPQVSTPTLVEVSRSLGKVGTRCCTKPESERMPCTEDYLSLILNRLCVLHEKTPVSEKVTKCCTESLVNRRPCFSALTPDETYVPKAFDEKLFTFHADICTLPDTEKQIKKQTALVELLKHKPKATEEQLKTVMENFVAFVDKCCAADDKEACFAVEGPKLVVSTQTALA

Substance | position of the steel ball / hydrogel state [1, 6] | position of the steel ball / hydrogel state [1, 7] | hydrogel formed (in words) ([1]; 0.5 wt. %, pH 3.5 and pH 7.4) | further results
2C(Maltose)-(RADA)4 [Compound 8] | ◯* | X* | – | hydrogel formed (in words) ([1]; Example 4, 0.5 wt. %, pH 7.4): did not form hydrogels
2C(Maltotriose)-(RADA)4 [Compound 9] | ◯ | ◯ | transparent and uniform hydrogels | –
3C(Maltose)-(RADA)4 [Compound 12] | ◯ | ◯ | transparent and uniform hydrogels | –
(RADA)4 [Compound 1] | X* | X* | – | position of the steel ball / hydrogel state ([2]; plasma concentration 5%): X*; hydrogel formed in presence of blood plasma (in words) ([2]; plasma concentration 5-50%): clouded and insoluble matters were observed at all plasma concentrations; position of the steel ball / hydrogel state ([2]; plasma concentration 10%): X*; position of the steel ball / hydrogel state ([2]; plasma concentration 25%): Δ*; position of the steel ball / hydrogel state ([2]; plasma concentration 50%): Δ*; hydrogel formed (in words) ([1]; 1 wt. %, pH 2.0): transparent and uniform hydrogel; hydrogel formed (in words) ([1]; 1 wt. %, pH 3.5 or higher): ununiform hydrogel with clouding; position of the steel ball / hydrogel state ([1]; peptide concentration 1 wt. %, pH 2.0): ◯; position of the steel ball / hydrogel state ([1]; peptide concentration 1 wt. %, pH 3.5): Δ*; position of the steel ball / hydrogel state ([1]; peptide concentration 1 wt. %, pH 7.4): X*; position of the steel ball / hydrogel state ([1]; peptide concentration 1 wt. %, pH 11.5): X*; β sheet structure formation ([3]; neutral pH): formed almost no β sheet structure; molar ellipticity (CD) ([3]; pH 2, 100 mM aqueous polypeptide solution): high molar ellipticity; molar ellipticity (CD) ([3]; pH 7, 100 mM aqueous polypeptide solution): significantly reduced; rigidity of hydrogel formed [4]: a fragile hydrogel is formed, or an ununiform hydrogel that is only partially rigid is formed; phase angle (tan δ) over a time course ([4]; frequency 1 Hz, distortion 10%): large phase angle; controlled release capability (BSA leakage speed vs solution without any polypeptide) ([5]; pH 7.4, polypeptide 0.5 wt. % or less): does not possess controlled release capability; leakage of BSA encapsulated in the hydrogel ([5]; phosphate buffer pH 7.4, 37 degrees, polypeptide 0.25-1 wt. %): leaked out in a short time
(RATARAEA)2 (RATARAEARATARAEA) [Compound 16] | X* | X* | ununiform and clouded hydro gel | –
C(DiGlcNAc)-(RADA)4 [Compound 2] | – | – | – | controlled release capability (BSA leakage speed vs solution without any polypeptide) ([5]; pH 7.4, concentration as low as 0.25 wt. %): showing controlled release capability
C(Maltose)-(RADA)4-C(Maltose) [Compound 10] | ◯* | X* | – | hydrogel formed (in words) ([1]; Example 4, 0.5 wt. %, pH 7.4): did not form hydrogels
C(Maltotriose)-(RADA)4-C(Maltotriose) [Compound 11] | ◯ | ◯ | transparent and uniform hydrogels | –
C(PEG2000)-(RADA)4 [Compound 14] | X | X | uniform hydrogels were not formed | –
